Values quoted from earlier work, collected in article PMC5956149.

Biological target: CheA (Escherichia coli) (UniProt P07363)
Conditions: cited from earlier work

For CheA (from UniProt P07363), the Kd is listed as 400 nM.
